Earlier results on one substance are cited in paper PMC2806950.

This data set addresses EcoKI R/M enzyme (Escherichia coli) (UniProt P08956). Kind of data set: given as Ka.

Sequence of EcoKI R/M enzyme (Escherichia coli) (P08956 whole entry, chain 1 of 3): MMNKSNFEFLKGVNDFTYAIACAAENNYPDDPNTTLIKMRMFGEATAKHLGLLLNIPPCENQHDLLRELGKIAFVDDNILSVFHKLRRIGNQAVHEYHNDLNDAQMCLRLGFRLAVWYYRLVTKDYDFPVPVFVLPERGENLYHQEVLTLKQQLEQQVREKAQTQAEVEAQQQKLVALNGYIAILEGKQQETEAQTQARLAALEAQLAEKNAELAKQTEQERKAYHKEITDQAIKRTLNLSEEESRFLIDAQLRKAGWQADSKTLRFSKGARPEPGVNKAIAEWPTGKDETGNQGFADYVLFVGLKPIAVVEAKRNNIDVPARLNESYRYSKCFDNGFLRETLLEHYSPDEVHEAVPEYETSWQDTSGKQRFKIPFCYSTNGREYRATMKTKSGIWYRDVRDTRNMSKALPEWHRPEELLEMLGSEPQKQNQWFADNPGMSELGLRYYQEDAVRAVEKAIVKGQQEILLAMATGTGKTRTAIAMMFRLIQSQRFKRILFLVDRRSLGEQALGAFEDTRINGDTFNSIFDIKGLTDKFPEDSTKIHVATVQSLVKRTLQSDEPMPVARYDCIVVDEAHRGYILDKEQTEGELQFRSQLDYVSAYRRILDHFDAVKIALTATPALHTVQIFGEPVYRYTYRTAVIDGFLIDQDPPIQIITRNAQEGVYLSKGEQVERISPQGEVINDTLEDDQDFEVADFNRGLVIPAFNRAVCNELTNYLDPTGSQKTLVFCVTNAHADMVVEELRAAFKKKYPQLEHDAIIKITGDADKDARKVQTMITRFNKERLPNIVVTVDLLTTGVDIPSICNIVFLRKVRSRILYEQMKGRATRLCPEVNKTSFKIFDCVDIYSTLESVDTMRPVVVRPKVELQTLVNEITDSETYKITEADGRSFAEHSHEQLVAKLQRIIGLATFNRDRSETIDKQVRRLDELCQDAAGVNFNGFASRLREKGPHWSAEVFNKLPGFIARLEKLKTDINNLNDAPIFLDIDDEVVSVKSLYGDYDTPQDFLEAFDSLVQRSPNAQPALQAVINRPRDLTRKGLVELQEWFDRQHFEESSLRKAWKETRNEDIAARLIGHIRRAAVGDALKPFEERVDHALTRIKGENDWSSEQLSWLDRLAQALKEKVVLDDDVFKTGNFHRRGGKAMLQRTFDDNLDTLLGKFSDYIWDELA
Sequence of EcoKI R/M enzyme (Escherichia coli) (P08957 whole entry, chain 2 of 3, further chain): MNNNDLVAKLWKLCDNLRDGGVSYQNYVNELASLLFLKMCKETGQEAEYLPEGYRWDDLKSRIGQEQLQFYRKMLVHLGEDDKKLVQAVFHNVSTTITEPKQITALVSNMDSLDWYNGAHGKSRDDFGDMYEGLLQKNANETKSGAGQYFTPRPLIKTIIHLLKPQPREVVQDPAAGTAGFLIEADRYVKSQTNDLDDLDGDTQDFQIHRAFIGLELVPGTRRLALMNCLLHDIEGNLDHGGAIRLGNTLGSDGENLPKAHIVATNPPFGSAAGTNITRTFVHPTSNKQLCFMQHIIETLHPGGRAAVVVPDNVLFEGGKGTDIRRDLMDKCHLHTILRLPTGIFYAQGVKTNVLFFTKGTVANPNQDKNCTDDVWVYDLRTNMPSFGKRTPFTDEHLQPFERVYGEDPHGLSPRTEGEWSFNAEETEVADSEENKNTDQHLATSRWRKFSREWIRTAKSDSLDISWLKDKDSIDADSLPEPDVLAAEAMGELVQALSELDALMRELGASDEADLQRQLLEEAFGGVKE
Sequence of EcoKI R/M enzyme (Escherichia coli) (P05719 2-464, chain 3 of 3, further chain): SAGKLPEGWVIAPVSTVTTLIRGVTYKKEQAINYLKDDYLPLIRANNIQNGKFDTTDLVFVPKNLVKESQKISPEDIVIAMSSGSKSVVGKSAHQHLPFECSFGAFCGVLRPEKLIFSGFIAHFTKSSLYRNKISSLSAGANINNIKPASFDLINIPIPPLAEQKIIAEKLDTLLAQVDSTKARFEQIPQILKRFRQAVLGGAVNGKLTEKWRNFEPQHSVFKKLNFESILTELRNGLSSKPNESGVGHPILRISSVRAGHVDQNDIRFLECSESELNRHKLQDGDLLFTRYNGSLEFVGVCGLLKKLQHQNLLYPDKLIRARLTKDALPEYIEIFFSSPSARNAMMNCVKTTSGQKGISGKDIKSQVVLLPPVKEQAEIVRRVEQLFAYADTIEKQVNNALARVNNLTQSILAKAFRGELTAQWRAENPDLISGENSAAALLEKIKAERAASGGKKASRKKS
Sequence of Ocr (P03775 whole entry): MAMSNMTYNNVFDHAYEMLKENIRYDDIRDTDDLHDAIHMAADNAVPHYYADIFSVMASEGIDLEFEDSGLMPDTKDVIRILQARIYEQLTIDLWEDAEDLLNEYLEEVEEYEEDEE

As a reminder, the Kd is the constant that tells how readily two partners part at equilibrium. For the substance Ocr (from UniProt P03775), the Kd is 0.05 nM.
